Target: CALM_(2091)AF10 (human) (UniProt Q13492)
Assay: FRET or BRET

average FRET efficiency: 13%
mean donor photobleaching decay constant (CFP with YFP; CFP alone 0.72): 0.5
Substance: CALM_(2091)AF10 (from UniProt Q13492 1-648)

From article PMC3204175
